Results taken from patent publication US20230321260A1.

Target: MBP-RumTrunkD9NTag
Experiment: isopeptide coupling to RumTrunkD9NTag-MBP, 5 uM each, 37 C, SDS gel (time given as 50 minutes and as 3 h)

## SpyCatcher-VLP
  Percentage reconstitution: 11.9%
